Reference: patent US7141434B2, “Methods of identifying compounds that modulate IL-4 receptor-mediated IgE synthesis utilizing an adenosine kinase” (Rigel Pharmaceuticals, Inc., priority 2002, dated 2006)

Experiments:
human AK (hAK) = target: T1, human AK (hAK) (Homo sapiens, UniProt P55263); test: β-galactosidase yeast two hybrid (YTH) interaction assay; assay type: binding; conditions: qualitative
T1 construct: expressed in transfected cells; prey cDNA from the A5T4 reporter cell line (derived from BJAB B-cells)
Description: Potential binding partners for peptide AR02E8 wt were identified in a β-galactosidase yeast two-hybrid (YTH) assay using peptide AR02E8 wt as bait and a cDNA library constructed from the A5T4 reporter cell line as prey. Binding was assessed by β-galactosidase quantification using BetaFluor (Novagen) as a substrate. A negative interaction control (no cDNA fused downstream of the GAL4 activation domain sequence) was also run. A general outline of the YTH assay is illustrated in FIG. 5A. Following clustering, filtering to remove non-specific bait hits (e.g., GFP and BFP), singletons and clusters recognized by 10 or more cDNA baits (based upon historical YTH assays), and prioritization, 45 prey clones were identified as hits.
Potential targets identified in the YTH assay were reconfirmed as generally outlined in FIG. 6. The cDNA clones identified as hits in the YTH assay were purified and rescreened for interaction with the AR02E8 wt peptide in a YTH assay. The hit clones were also screened in a control assay for interaction with the BFP using a vector (pGBKT7) that contained only the BFP and not the AR02E8 peptide. At this stage, 27 putative target clones remained.
The interaction of AR02E8 wt peptide and its mutants with the clones identified as potential targets for the peptide AR02E8 wt was then quantified in a β-galactosidase YTH assay. The YTH assay was performed in the manner described above. A general outline of this YTH assay is illustrated in FIG. 5B. For each clone tested, an interaction profile was developed by comparing the β-galactosidase activity of each mutant to that of the wild type peptide as described above.
The interaction of these IOF, ROF and LOF mutants with different polypeptides encoded by the putative target clones were quantified using the YTH assay described above. […]

[1] = tested on: IL-4 induced germline ε transcription (ε promoter reporter in A5T4 cells); test: Re-infection of naive A5T4 reporter cells with BFP-peptide fusion (GFP reporter ratio); assay type: cell-based, human; conditions: based on reporter ratio; % change calculated after subtracting 1.0 from the ratios
Description: The ability of peptide AR02E8 wt to inhibit germline ε transcription was confirmed in naive cells. Briefly, Phoenix cells were transfected with a retroviral vector encoding a BFP-AR02E8 wt peptide fusion as described in WO 99/58663 and WO 97/27213. Naïve A5T4 cells were infected with the resultant virions and grown for 3 days. The infected cells were stimulated with IL-4 (60 U/mL) and, after 3 days, the cells were assessed by FACS for BFP and GFP. […] The BFP fluorescence data corresponding to the BFP^+ and BFP^− populations are provided in Panel A. The GFP fluorescence data corresponding to the BFP^+ and BFP-populations are presented in Panel B. The reporter ratio for this purpose is determined as the geometric mean of the GFP fluorescence of the BFP^− population divided by the geometric mean of the GFP fluorescence of the BFP^+ population. The reporter ratio for the AR02E8 in this re-infection assay was 2.93. […]
TABLE 2 depicts the amino acid sequences (the dual alanine/glycine mutations are underlined) of the mutants tested and the measured reporter ratios when screening in the A5T4 reporter line.

[2] = tested on: ST486 endogenous α promoter; test: TAQMAN assay of endogenous germline α promoter transcription in ST486 cells; assay type: cell-based; conditions: ST486 cells stimulated with TGF-β 40 ng/ml; average of 3 values; p=0.1120
Description: The assay was similar to that described in the immediately preceding section, except that ST486 cells (ATCC # CRL-1647) engineered to express the tetracycline-regulated transactivator were infected and the infected cells were stimulated with TGF-β (40 ng/ml; Peprotech). The primers and probe, which are specific for the transcription product driven by the ST486 endogenous α promoter, were as follows (the probe was labeled at the 5′-end with Fam and at the 3′-end with Tamra): […]

T1 sequence (P55263 whole entry): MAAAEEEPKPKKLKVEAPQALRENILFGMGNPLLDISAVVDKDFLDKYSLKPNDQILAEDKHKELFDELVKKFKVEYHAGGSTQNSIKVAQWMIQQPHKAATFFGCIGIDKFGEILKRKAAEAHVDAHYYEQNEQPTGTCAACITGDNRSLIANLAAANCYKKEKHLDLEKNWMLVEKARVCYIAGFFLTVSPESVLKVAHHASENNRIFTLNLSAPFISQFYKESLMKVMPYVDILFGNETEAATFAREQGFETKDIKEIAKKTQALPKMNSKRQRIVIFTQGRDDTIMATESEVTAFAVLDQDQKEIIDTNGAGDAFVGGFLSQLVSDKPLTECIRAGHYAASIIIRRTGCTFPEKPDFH

Sequence	binding to human AK in yeast two hybrid interaction assay (human AK (hAK))	functional category as compared to the wild type peptide [1]	endogenous α inhibition ratio [2]
DTMQVQCGVCAGGYVVAFWDVGP (peptide encoded by synthetic oligomer) [AR02E8RS, dual alanine/glycine mutant of AR02E8 wt]	found to bind human AK (hAK)		
DTMQVQCGVCRSGAGVAFWDVGP (peptide encoded by synthetic oligomer) [AR02E8YV, dual alanine/glycine mutant of AR02E8 wt, loss of function]		LOF (Cells expressing a loss of function (LOF) mutant have a reporter ratio of <1.11)	
DTMQVQCGVCRSGYVVAFWDVGP (peptide encoded by synthetic oligomer) [AR02E8 wt, 23-residue peptide from a random retroviral library, expressed as BFP-peptide fusion]	found to bind human AK (hAK)		0.79
DTMQVQCGAGRSGYVVAFWDVGP (peptide encoded by synthetic oligomer) [AR02E8VC, dual alanine/glycine mutant of AR02E8 wt]	found to bind human AK (hAK)		
